From a protein production outcome set (Wang et al. 2014)

Assay: label from the status in PepcDB records

Sequence	protein production
MTPLHGAATPASASAAGSMKASHEASADPRSRFFDERAATWEQRCYPPEARRRLAALVPRFGVERGDCVLDMGTGTGVLIPYLRDGVGDAGRILSFDVSFEMVRRAGCKERDAKGLCVQATAMRIPARDGVFDRVVCFAAFPHFADKPAAMREMARVVRPGGEVVIAHLLSRAELARHHGGHPAVAEDALPDDATMRGLMHDAGLVEGSITDGPGMYVARARKPRTCRAGEGGVPGTPGTPGGRAGGSAGGEGAESAIAGDAEGNGSGVEAGFEARRVFTALKQNDAMHHSAVYGVLSGLLRAFACDAALPHGAPGQGGALRILDVGCGEAADVVQALEGVTVGAYTGVDTSAPALAEARRHLAALGCPVTLIEGDYRLALNTSQGSVDVLWMGLFLHHLPRALKADFLHTAHGLLAPGGMVLAHDPIMGEDDTRETMLARMEAIGRERWHFLTPEEVGMVHRHWSCHGHQERFSDLCALGEAAGFEVDMVWHDADRTYGLVRFMRRG	failed
MTPLMLMVVAGAGIALLLFLVLKYKFQPFVALMLVSIIVALVAGVKPADLVATIEGGMGKTLGHIAIIIALGAMIGRIIELSGGAEALAKTLINRFGNRRTPLALTVAGFMVGIPVFFEVGVIILMPLAYGVARAARKPLLIFALPMCAALLAVHAFLPPHPGAVAAASQLGADLGRVLMLGIPIVAVLCMIGYFVAGRMTRKTYPMTDDIRAEVYGPHVTNEDLEAWARNDYSGAREATETKTLGAEESASSLASKLPPAPAPGFGLIIALILLPIVLILMGTLATTLLPATSTLRAVLTVLGAPLVALLIDTLLCAWLLGSRRGWSRTQVSDVIGSALPGVAMVILIAGAGGVFGKVLVDTGIGAVVSEALRNTGLPVLALGFLLTLLLRAVQGSTTVALVTTAGILSPLIATLDLSANHLALLCLAMGGGGLAMSHINDAGYWMFTKLAGLNVADGLRTWTVLVTLLGTLGFVITLLLWPFV	failed
MTPPIINLPQRLGRSRRLAYGAATAGAWMVYFYLWAPLATLIAWFFGLRSAYTELYLQHNALDPFALGSLPVIALMSAITTVGWAEYNRLRFVNADKRRRPRTVAEPDVDQRLGATEQLGTLLRHSRISSVAMDKFARPVAVRVVRHR	failed
MTPSRDTKIILEGFCHPALNNPKPISVRFEKSILMVTGVNAGGKTMLLKSILSSAFLARYLIPMPILASKSSIGSFKGIAAVLDDPQSAKNDISTFAGRMLSFERFFKERGFLVGVDEIELGTDSDEAASLFKVILEQLIKRDFKIIITTHHKRLAALMAANEEVELMAALYDEKRQMPTFSFLQGTIGKSYAFETAERYGIPPFVIKEAKEVYGQDKEK	failed
MTQAFSRVRFIMTQPSHPGNVGSAARAIKTTGFGELVLVAPRFPDMTAQPEAVTLASGALDVLERAAVHDTLEEALAPVTLAFALTARVRDLGPPPCDIREAAGLARRHLDDTEAGVVAIVLGTERAGLTNAQIELCHRICHIPANPQYSSLNVAQALQLAAWELRYALLAGTGQSLLPASSAQQANPGAAPADGAAVQALLAHWEQALVAVGFLDPAHPKKLMPRMKHLLTRSALSRDEVDMLRGVCTAMIAPNRPK	failed
MTQDPIANLKLARKGPIVSIIVYLSLSVAKLLAGYLLNASSLIADGFNNLSDIVGNVALLIGLHLASQPADANHKFGHWKIEDLSSLVTSFIMFLVGFQVLIHTIKSIFSGQQVDIDPLGAIVGIVSAFVMLGVYVFNKRLSKRVKSSALVAASKDNLADAVTSIGTSIAIIAASLHLPVIDHIAAMIITFFILKTAFDIFMESSFSLSDGFDSRHLKKYEKAILEIPKIVAVKSQRARTYGSNVYLDIVLEMNPDLSVYESHSITEKVEQLLSDQFSIYDIDIHVEPAMIPEEEIFDNVAKKLYRYEKLILSKVPDYDHYIAKSFQLIDANGQTVNYEQFLNQEIYYPSNFNHFQIESISQKTMLVTYQLNGNQRTSIWRRHESWSLLFHQITPIAKKQLHHTHYRIVKM	failed
MTQHPFISRVAVRNYKSIGYCDVNLRPLTYLVGHNGAGKSNFMDALHFVCDALSYSLDSALNERGGINEVRRRSGGHPTHFALRVEFVMQSGQAGRYGFVIGALKNGGYEVQREECVVAGIGKGPFFRIEKGKLRDSSETTFPSVTADRLALVAASGLTAFRPVFDALTAMGFYNLNPKLMRELQKPQDGRLLRPAGENIASVIGHLEKVAPAQMALIQEYLHSVAPMVHGVERKPIGPMETLEFRQDMAGSKHPWRFLAQNMSDGTLRALGVLSALLQGNVDYSPTLIGIEEPETALHPAASAALREALVRASETTQVLVTSHSPDLLDDHSIDADAVLAVVSEAGETKVAPLDEGSRQVMRDHLFSAGELLRMNQLAPDRASLEQQDKAASGDLFGETESVLEHHHHHH	not failed
MTQMKIFVIGAHGQIGKKIVSKLVAQGDQVYAGIRQPEQAEAFEDAGAQPVQFNLMAQPEDLALAFNGMDAIVFAAGSGGQTGYDMTLMIDLDGAVKSMVAAKIAGVKRYVIISAEFTPDRSRWPRALQPYYVAKYYADEWLKNRTQLDYTILQPGTLINDAGTGKVTVNPDVGGEITRDDVATFTVQTLHTPATVGKTIALINGDTPISKAVQQA	failed
MTQNVLNERPAGQKPVALSSFRGCINGLYGDVLQGWAIDITQPDQRPVIEVFVDGASVALARADQHEPNAPHGDHFHGFTVQLRQSLLADANRITAQIANTGIHLEGEIELPSQPPQETAAVASQVWHTGGLRVGGWSWDPQAPHRHVVVTLREGSRVVAQVTCNTHHQALAYRATSDHGFAIDLPWELADGKLHVIEVTNDLGQSLPGSPIRLRCRPEGLEGLLHQLELKPDAAMQALVAEVAKEQSSRLPKSAGWQHYPRWYDAFQKREPIAAIPSRFRPGLLLLSEGDATLEKISLDSLGDDAESVHQLAKAAPADLLPAVEQLLAAGCDSIIQIAAGDKLAPRAMAQLRNLLEEGCAWAYADCDRDGPQGQRSQPWFKPVWDIDLFIGADIFSTGAIFSAAIVKEALALLKAGKKQSAINRHDLIAGIALATELNGRSVTHLPRVLYHRSSDTCTSPEQAAPSKQRKDAVAWLCQGLAPGAHVSAVPDYPALLRAHWPLPEQLPRVSLIVPTRDQYKLLHACIEGLLNNTDYPDLEIIVVDNQSTDPQTLAYLAELKQRGVKILAHPHPFNYSTINNRAASAATGELIGLVNNDIEIIESGWLKEMVSQALRPGIGAVGAKLLWPNRMVQHGGVVVGVNGLAAHAGNTLEQRDAGYLGMNQVTRRQSAVTAACLLLRKSLFDSIQGLDERAFPVAFNDVDLCLRIHELGLRNVWTAFAQLIHAESASRGKDISPEKMARAQREQQLFTERWSVSYRDPYYHPALSLDYLTGPYGGLSLPPEPEYCAPRKLASSETHGHIYLADPS	failed
MTQRDTGRLDAIVLAAGRGVRFGGGKLTALLDGDPLVAAALLTAFLAPARRVVVAVGPEPDVRQAVEATATRLLARERLVLVPIDDPSAGMGASLAAAARSLPGDTDGVFVFLGDMPRIDPATPRHLAAALRDPGDIVAPTYLGRRGHPVLFGARWAPVLGALSGDEGARAIVDKAGESLVLVPVDDPGVHLDVDRPSDLARVQTDRRTLLEHHHHHH	not failed
MTQRRATRRRFLMGCSAIASVGLAGCTGGDESTATDSTPSPTDDGDAEPTTTTDEPPATDTATATPDQEAVETLVSVGGDRVPENMALGPDGGLYFGITAGEVRRVPAAETGATGLSLEDTEQIATLPGAIGVEAAPDGTVYVAVATQDDQAGVWEIPLDGDAAQLVEMGGFPNDIHYDADQERLLVTESQNGVVYAVTTDGERSTWLDDDRLETESFGANGITRDADGDIFVAVTRAPEETGRLLRVPVESDGAAGEPSMFFEGGAIFGADGITSRDGDIYVAANSQNRVVRVTADGTTDVVATADNGLVFPSDVLFRTGDQQESLFICNFANQSPEDGAILRTSVPR	failed
MTQSALHTEFGGIAALRDALARRQVSAVELAQSGLDAAQAASGLNAFLHIDPELTLAQARAADAALAAGTAGPLAGIPIAHKDAFVTRGWRTTAGSKMLAGYASPFDATVVERLAEAGAVSLGKLNCDEFAMGSGNENSAYGPVRNPWDTRAVPGGSSGGSAAAVAARLVAAATGTDTGGSVRQPAALCGVSGIKPTYGTVSRYGMIAFGSSLDQAGPLAPSSRDLLELLDVMTGFDPRDATSLQACDGQANESGRVRRGHDAAQAGYDAAGSQPLKGLRIGVPQEYFGAGLAPDVAAAVEAALAQFEQLGAVRVPVSLPRTELAIPAYYVIAPAEASSNLARYDGVRYGHRAAQYGDLNEMISRSRAEGFGDEVKRRILIGTYVLSHGYYDAYYLQAQRLRRLIAQDFQRAFADQCDVIMGPVSPTVAKNIGDNRDDPTADWLADVYTLGVSLAGLPAMSVPCGFGGQDGRRPVGLQIIGNYFDEGRLLALADRYQQVTDWHQRAPVSQDA	failed
MTQTGSARFEGDSWDLASSVGLTATMVAAARAVAGRAPGALVNDQFAEPLVRAVGVDFFVRMASGELDPDELAEDEANGLRRFADAMAIRTHYFDNFFLDATRAGIRQAVILASGLDSRAYRLRWPAGTIVFEVDQPQVIDFKTTTLAGLGAAPTTDRRTVAVDLRDDWPTALQKAGFDNAQRTAWIAEGLLGYLSAEAQDRLLDQITAQSVPGSQFATEVLRDINRLNEEELRGRMRRLAERFRRHGLDLDMSGLVYFGDRTDARTYLADHGWRTASASTTDLLAEHGLPPIDGDDAPFGEVIYVSAELKQKHQDTR	not failed
MTQVIIDGDACPVTNSIIELTKGTGIFVTVVRSFSHFSTVIQPEHVNIIYVDDGPDAVDYRIVKLVHSDDLVVTQDYGLASLLLNKAKIVMHHKGLEHHHHHH	failed
MTRAKQIILWASLSAMPLIAQASERSDDEIKALVYQAILERPEIILQAVEQLQQAEEAAQAASAHAALTENRDSLFNDPNAPVLGNPEGDVTVVEFFDYNCPYCRRAMAEVQGLVDADPNVRLVYREWPILGEGSDFAARAALAARQQGKYEAFHWALMGMSGKANETGVLRIAREVGLDTEQLQRDMEAPEVTAHIAQSMALAQKLGFNGTPSFVVEDALVPGFVEQSQLQDAVDRARKAAAK	failed
MTRAPSGGTEAPPGRTARRAGWDGRCQAAGHRSRRGGLSTGGDEVSTSDSDDAGLRSFLADPAHLTLDLRTATARCVKALGLRHAVVYLVDLQQRHLVPQTAVAPSVPVDGSPAGWAYRTQSLRVEESGTGGGITAWFPLLDGAERLGVLALCETALTASSLTRGRALASLLAMVITSKRLYEDSFVRRTRTERMTLPAEMLRALLPPRTIGNGNVVSTAVLEPAYEIGGDAFDHALTETTLHVAVLDAMGHDLASGLTTTVSLAACRNARRTGADLPELVRSVDEALSSWLPDKFCTSVIAQLDLVTGVLRWANCGHPAPILIRDQRLVIDAMERDADPPMGMPSLLSPHARRTHEISLEPGDRVLMYTDGVVEARTREAKLLGLERFADYVIRATAGGELAPESLRRLIHSILAMQEGRLRDDATLLMFEWRPPS	failed
MTRKKLNLSYITNESMRKATFNKRKKGLVKKIHELSVLCGIEACAVIYSPFNSNPEVWPSNSEVKNVMENFEMLTKLEQEKKMVSHEGFIRQNISKTMESNNKKMIDNAERTMKEAMFQLLSGKGEKLNLTDRNREDLCKYIDQYLKELYHHKNKTINQSHIEPGESSGATNAMTPTSVVENPNFNHLSHNQYQYQQQFGYPILVQDGIYNPSQIQNQHEEWLDDHMMNHSKEISHPLMDDNNFYYQQP	not failed
